# ± gives the standard deviation of the averaged measurements.
# B1: library; numbered along this chain (parent)
# chain: MNIQIGELAKRTACPVVTIRFYEQEGLLPPPGRSRGNFRLYGEEHVERLQFIRHCRSLDMPLSDVRTLLSYRKRPDQDCGEVNMLLDEHIRQVESRIGALLELKHHLVELREACSGARPAQSCGILQGLSDCVCDTRGTTAHPSD
# Legend:
# [1] = variants of: B1; assay: sfGFP reporter fluorescence (15 h) (µM FITC); higher = higher leak; settings: library round: Round 1; ligand: none
# Protocol: (§1)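 Cell-free biosensing: 1 µL Echo-assembled CFE reactions with linear PbrR variant templates (5 nM) and pPbrR-sfGFP reporter, with 1 µM Pb, 30 µM Zn or no ligand; endpoint sfGFP fluorescence after 15 h at 30 °C calibrated as µM FITC. Round 1 ML-predicted PbrR mutants; 3 biological replicates.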
# [2] = variants of: B1; assay: sfGFP reporter fluorescence (15 h) (µM FITC); higher = stronger transcriptional activation; settings: library round: Round 1
# Protocol: as §1
Variant,sfGFP reporter fluorescence [1],sfGFP reporter fluorescence ([2]; ligand: 1 µM Pb),sfGFP reporter fluorescence ([2]; ligand: 30 µM Zn)
D131C D135A,0.0605 ± 0.0013,0.0742 ± 0.0019,0.221 ± 0.02
I97A K104V,0.0886 ± 0.0059,0.303 ± 0.071,1.11 ± 0.076
N83T K104R D135K,0.0682 ± 0.00097,0.0845 ± 0.0083,0.149 ± 0.0056
D64S E109H,0.0794 ± 0.0043,0.193 ± 0.0059,1 ± 0.12
M60L D135A,0.0914 ± 0.0019,0.258 ± 0.02,1.4 ± 0.16
L110I D135A,0.0608 ± 0.00097,0.0588 ± 0.0053,1.94 ± 0.1
K104A G128M,0.0657 ± 0.0021,0.109 ± 0.01,0.897 ± 0.013
M60L P61D D64K,0.237 ± 0.022,0.609 ± 0.14,1.82 ± 0.074
R111V P143T,0.0627 ± 0.002,0.0715 ± 0.0029,0.25 ± 0.011
L58F P61N,0.0663 ± 0.0015,0.0952 ± 0.0084,0.219 ± 0.02
P61N E94C,0.0858 ± 0.0022,0.186 ± 0.015,0.781 ± 0.13
P61N E94A,0.0757 ± 0.0021,0.15 ± 0.0094,0.977 ± 0.065
M60F P61N D64K,0.624 ± 0.057,1.61 ± 0.059,1.82 ± 0.16
D64K D135Y,0.149 ± 0.014,0.386 ± 0.028,1.09 ± 0.15
D131T D135A,0.0636 ± 0.0011,0.08075 ± 0.00021,0.365 ± 0.0092
Q121A D135A,0.0661 ± 0.0031,0.0888 ± 0.0096,0.743 ± 0.11
E109I R111L,0.0627 ± 0.0016,0.0717 ± 0.003,0.217 ± 0.0064
K104V L107G G128M,0.0645 ± 0.0022,0.0955 ± 0.013,0.29 ± 0.028
V108L C114L,0.05962 ± 0.00056,0.0571 ± 0.003,0.0589 ± 0.0018
L110I R111A,0.0628 ± 0.00092,0.0635 ± 0.0042,0.415 ± 0.045
D64K N83T,0.0636 ± 0.0021,0.186 ± 0.009,0.695 ± 0.022
N83M D135A,0.0564 ± 0.0017,0.102 ± 0.0031,0.07 ± 0.0044
P61N D64K V108H,0.139 ± 0.0027,0.462 ± 0.044,1.48 ± 0.026

Variant,sfGFP reporter fluorescence [1],sfGFP reporter fluorescence ([2]; ligand: 1 µM Pb),sfGFP reporter fluorescence ([2]; ligand: 30 µM Zn)
D131S P143A,0.0606 ± 0.0013,0.07916 ± 0.00037,0.373 ± 0.042
D131M D135A,0.0704 ± 0.005,0.0869 ± 0.0074,0.573 ± 0.039
N83T V108L D131C,0.06218 ± 0.00042,0.0745 ± 0.0076,0.0858 ± 0.0057
V82I E112I D131C,0.0625 ± 0.0026,0.0635 ± 0.0028,0.0669 ± 0.0057
N83T L107C D135A P143T,0.1501 ± 0.0015,0.642 ± 0.046,1.85 ± 0.12
K104R C134I,0.0715 ± 0.00073,0.152 ± 0.007,1.14 ± 0.072
M60L D64K K104T,0.5087 ± 0.0029,1.14 ± 0.23,2.22 ± 0.29
D131Y D135P,0.0677 ± 0.0011,0.0826 ± 0.0037,0.272 ± 0.021
C55L M60L P61N D64K,0.071 ± 0.0012,0.0878 ± 0.0025,0.382 ± 0.0068
N83T C134M,0.05754 ± 0.00037,0.0707 ± 0.0046,0.19 ± 0.022
N83T C134V,0.0588 ± 0.0022,0.0731 ± 0.0054,0.168 ± 0.016
L107C E109Q G128I,0.54 ± 0.0092,1.09 ± 0.29,2.1 ± 0.28
R111F E112A,0.05962 ± 0.00021,0.0657 ± 0.00092,0.22 ± 0.021
N83V C134S,0.0579 ± 0.00097,0.0667 ± 0.0035,0.055 ± 0.00064
N83T L107C G128M D135A,0.561 ± 0.031,1.15 ± 0.069,2.06 ± 0.28
N83T E109F,0.0638 ± 0.0013,0.0862 ± 0.0036,0.315 ± 0.0065
M84Q R111L,0.0624 ± 0.0054,0.0651 ± 0.0026,0.122 ± 0.0058
I90L G128T D135A,0.0632 ± 0.00092,0.0679 ± 0.0048,0.266 ± 0.031
D131S D135A,0.0649 ± 0.0016,0.0893 ± 0.0049,0.459 ± 0.015
V108I D131C,0.0613 ± 0.0026,0.0713 ± 0.0046,0.134 ± 0.0021
R91A K104V,0.0657 ± 0.0027,0.119 ± 0.002,0.748 ± 0.029
N83T L110W,0.0601 ± 0.0015,0.0593 ± 0.0024,0.0597 ± 0.00097
L129I D131C,0.0646 ± 0.0017,0.0641 ± 0.0044,0.07 ± 0.0017

Variant,sfGFP reporter fluorescence [1],sfGFP reporter fluorescence ([2]; ligand: 1 µM Pb),sfGFP reporter fluorescence ([2]; ligand: 30 µM Zn)
N83R D135A,0.0635 ± 0.0017,0.0787 ± 0.005,0.0875 ± 0.0015
P61L K104V,0.0638 ± 0.00097,0.0617 ± 0.005,0.0765 ± 0.0044
N83T I97N,0.06206 ± 0.00056,0.064 ± 0.0017,0.0862 ± 0.0011
N83T I97G,0.06365 ± 0.00056,0.0646 ± 0.0051,0.0965 ± 0.0021
L107C G128I D131C,0.657 ± 0.018,1.26 ± 0.22,1.77 ± 0.23
D135S P143W,0.0694 ± 0.00085,0.0798 ± 0.0084,0.355 ± 0.051
M60L D64K G128T D135A,0.874 ± 0.016,1.32 ± 0.071,2.33 ± 0.27
E109A D131C,0.0641 ± 0.0019,0.0804 ± 0.0035,0.462 ± 0.0051
P61N D64K K104V L107C G128I,0.427 ± 0.0081,0.961 ± 0.14,1.77 ± 0.27
P61N D64K K104V L107C G128M,0.854 ± 0.022,1.37 ± 0.39,2.24 ± 0.098
D64T K104T,0.207 ± 0.0096,0.472 ± 0.087,1.83 ± 0.16
V16T K104V,0.0693 ± 0.0019,0.105 ± 0.0073,0.497 ± 0.034
D64T L107C,2.07 ± 0.33,2.22 ± 0.12,2.63 ± 0.3
N83T D131S P143A,0.059 ± 0.0033,0.0792 ± 0.0071,0.156 ± 0.017
K104V V108R,0.109 ± 0.0031,0.386 ± 0.041,1.52 ± 0.1
N83T G128I,0.059 ± 0.00064,0.133 ± 0.011,0.387 ± 0.038
N83W P143A,0.0616 ± 0.0013,0.0688 ± 0.0011,0.0621 ± 0.0015
M60L D131C,0.0866 ± 0.0039,0.248 ± 0.025,0.694 ± 0.081
P61E D64K D131C,0.108 ± 0.0035,0.243 ± 0.036,0.676 ± 0.084
N83S R111C,0.06169 ± 0.00056,0.0672 ± 0.002,0.0665 ± 0.0011
N83S R111D,0.0636 ± 0.0039,0.0665 ± 0.0026,0.0759 ± 0.00097
N83S P143W,0.0614 ± 0.0019,0.102 ± 0.012,0.556 ± 0.027
C55V K104V,0.0621 ± 0.00092,0.0644 ± 0.0017,0.107 ± 0.0044

Variant,sfGFP reporter fluorescence [1],sfGFP reporter fluorescence ([2]; ligand: 1 µM Pb),sfGFP reporter fluorescence ([2]; ligand: 30 µM Zn)
G128A L129M,0.0617 ± 0.0017,0.0701 ± 0.0044,0.257 ± 0.034
E112I D135A,0.063 ± 0.0023,0.06438 ± 0.00042,0.176 ± 0.0035
P15A P61L,0.0735 ± 0.0017,0.0722 ± 0.0038,0.0794 ± 0.002
N83T E109A P143Y,0.0646 ± 0.0022,0.0776 ± 0.0092,0.179 ± 0.017
D135A T136S,0.065 ± 0.00085,0.0751 ± 0.0085,0.424 ± 0.047
P30V K104V,0.0683 ± 0.002,0.117 ± 0.0083,0.641 ± 0.092
D64A I97M,0.0644 ± 0.002,0.0781 ± 0.0023,0.507 ± 0.02
N83T L85A,0.06145 ± 0.00056,0.0596 ± 0.0031,0.0602 ± 0.00076
D64T G128I D135A,0.4487 ± 0.003,0.801 ± 0.052,2.35 ± 0.3
L28V C134T,0.06536 ± 0.00042,0.0943 ± 0.0028,0.646 ± 0.022
D131L D135S,0.0691 ± 0.0011,0.0943 ± 0.002,0.588 ± 0.05
G32S C55M,0.0668 ± 0.0018,0.0712 ± 0.0065,0.101 ± 0.0013
M60L D64K K104V D131C,0.504 ± 0.028,1.29 ± 0.22,1.91 ± 0.2
D87E D131C,0.0622 ± 0.0025,0.0742 ± 0.0072,0.134 ± 0.013
L58F M60L P61N,0.091 ± 0.002,0.191 ± 0.051,0.61 ± 0.095
D135A P143W,0.0683 ± 0.0014,0.0809 ± 0.0017,0.372 ± 0.0075
D135A P143Y,0.0639 ± 0.0033,0.0797 ± 0.0033,0.361 ± 0.028
D135A P143A,0.0645 ± 0.0011,0.0761 ± 0.0051,0.423 ± 0.016
D135A P143M,0.0655 ± 0.002,0.07977 ± 0.00056,0.405 ± 0.014
D135A P143T,0.063 ± 0.0013,0.07562 ± 0.00042,0.374 ± 0.028
